Results as given in the Immune Epitope Database (IEDB).
pKd: −log10 of the molar value. Values belong to the sequence of their own block, whether it stands above or below them.

Experiments:
HLA-A*01:01 [1] = assay: IEDB peptide-MHC binding, purified MHC/competitive/radioactivity; filed as Kd, often an IC50 or EC50 that approximates it; ≥ and ≤ were set here for values at or beyond the usual limits of such assays
HLA-A*32:01 = assay: as above
HLA-B*40:01 [2] = assay: as above
HLA-A*30:02 = assay: as above
HLA-B*44:02 = assay: as above
HLA-B*58:01 = assay: IEDB peptide-MHC binding, purified MHC/direct/fluorescence; filed as Kd, often an IC50 or EC50 that approximates it; ≥ and ≤ were set here for values at or beyond the usual limits of such assays
HLA-A*23:01 = assay: IEDB peptide-MHC binding, purified MHC/competitive/radioactivity; filed as Kd, often an IC50 or EC50 that approximates it; ≥ and ≤ were set here for values at or beyond the usual limits of such assays
HLA-A*24:02 = assay: as above
HLA-B*40:01 [3] = assay: IEDB peptide-MHC binding, purified MHC/direct/fluorescence; filed as Kd, often an IC50 or EC50 that approximates it; ≥ and ≤ were set here for values at or beyond the usual limits of such assays
HLA-A*69:01 = assay: as above
HLA-A*02:01 = assay: as above
HLA-A*02:03 = assay: IEDB peptide-MHC binding, purified MHC/competitive/radioactivity; filed as Kd, often an IC50 or EC50 that approximates it; ≥ and ≤ were set here for values at or beyond the usual limits of such assays
HLA-A*02:02 = assay: as above
HLA-A*02:06 = assay: as above
HLA-A*11:01 = assay: IEDB peptide-MHC binding, purified MHC/direct/fluorescence; filed as Kd, often an IC50 or EC50 that approximates it; ≥ and ≤ were set here for values at or beyond the usual limits of such assays
HLA-A*03:01 = assay: as above
HLA-A*01:01 [4] = assay: as above; conditions: source organism: Homo sapiens
HLA-A*26:01 = assay: IEDB peptide-MHC binding, purified MHC/competitive/radioactivity; filed as Kd, often an IC50 or EC50 that approximates it; ≥ and ≤ were set here for values at or beyond the usual limits of such assays
[5] = source organism: Dengue virus 1 Brazil/97-11/1997
[6] = source organism: Dengue virus 3 Martinique/1243/1999
[7] = source organism: Dengue virus 4 Philippines/H241/1956
[8] = source organism: Vaccinia virus WR
[9] = source organism: Giardia lamblia ATCC 50803
[10] = source organism: Dengue virus 2 Jamaica/1409/1983
[11] = source organism: Burkholderia ambifaria AMMD
[12] = source organism: Mycobacterium tuberculosis
[13] = source organism: SARS coronavirus Tor2

Sequence: MTGTLAVFLL
pKd (HLA-A*01:01 [1]; [5]): ≤ 4.46

Sequence: NALKINWYKK
pKd (HLA-A*32:01; [6]): 5.67

Sequence: NELPESLETL
pKd (HLA-B*40:01 [2]; [7]): 6.61

Sequence: NGVVTKNGGY
pKd (HLA-A*30:02; [6]): 4.81

Sequence: NKAWMVHRQW
pKd (HLA-B*44:02; [6]): 4.90

Sequence: NRKGKVIGLY
pKd (HLA-A*30:02; [7]): 6.96

Sequence: QETWNRQDL
pKd (HLA-B*40:01 [2]; [5]): 7.14

Sequence: RLVDSIVSW
pKd (HLA-B*58:01; source organism: Influenza A virus (A/Istanbul/CTF/10/2004(H3N2))): 7.31

Sequence: RSCTLPPLRF
pKd (HLA-A*23:01; [5]): 5.60 | pKd (HLA-A*24:02; [5]): 4.97

Sequence: RSIMGSNNI
pKd (HLA-A*32:01; [8]): 6.85

Sequence: RTAGMIIML
pKd (HLA-A*32:01; source organism: Dengue virus 2 Peru/IQT2913/1996): 7.02

Sequence: SEVSNVQRL
pKd (HLA-B*40:01 [3]; source organism: Mammarenavirus lassaense): 7.15

Sequence: SICEIVYSF
pKd (HLA-A*32:01; [8]): 9.45

Sequence: SLDRKEFEEY
pKd (HLA-A*01:01 [1]; [7]): 5.98

Sequence: SLEKAANVQW
pKd (HLA-B*44:02; [7]): 4.97

Sequence: SLGILCVSI
pKd (HLA-A*32:01; [5]): 6.62

Sequence: SLNPYYQSY
pKd (HLA-A*69:01; [9]): ≤ 4.70 | pKd (HLA-A*02:01; [9]): ≤ 4.70

Sequence: SMYVIPDELI
pKd (HLA-A*02:03; [8]): 6.94 | pKd (HLA-A*02:02; [8]): 7.51 | pKd (HLA-A*02:06; [8]): 6.31

Sequence: SSVSSFERF
pKd (HLA-B*58:01; source organism: Influenza A virus (A/camel/Mongolia/1982(H1N1))): 7.14

Sequence: STDGPERVIL
pKd (HLA-A*01:01 [1]; [7]): 4.73

pKd (HLA-A*69:01; source organism: Homo sapiens): 5.13 | pKd (HLA-B*58:01; source organism: Homo sapiens): 5.69 | pKd (HLA-A*11:01; source organism: Homo sapiens): 6.42 | pKd (HLA-A*03:01; source organism: Homo sapiens): 5.50 | pKd (HLA-A*01:01 [4]): 6.83
Sequence: STDHIPILY

Sequence: STIANSNII
pKd (HLA-A*32:01; [8]): 7.84 | pKd (HLA-A*02:03; [8]): 5.83 | pKd (HLA-A*02:02; [8]): 5.21 | pKd (HLA-A*02:06; [8]): 5.91

Sequence: SVGTGILFM
pKd (HLA-A*02:03; [8]): 5.65 | pKd (HLA-A*02:02; [8]): 5.96 | pKd (HLA-A*02:06; [8]): ≤ 4.68

Sequence: SWALCEALTL
pKd (HLA-A*23:01; [6]): 6.37 | pKd (HLA-A*24:02; [6]): 6.30

Sequence: TEEAFKIGL
pKd (HLA-B*40:01 [3]; source organism: Mammarenavirus juninense): 9.52

Sequence: TINALVYFST
pKd (HLA-A*02:03; [8]): 5.13 | pKd (HLA-A*02:02; [8]): 4.85 | pKd (HLA-A*02:06; [8]): ≤ 4.21

Sequence: TLISSDGARV
pKd (HLA-A*02:03; [8]): 6.88 | pKd (HLA-A*02:02; [8]): 6.85 | pKd (HLA-A*02:06; [8]): 5.91

Sequence: TLVKSGLTEV
pKd (HLA-A*02:03; [8]): 8.53 | pKd (HLA-A*02:02; [8]): 7.19 | pKd (HLA-A*02:06; [8]): 7.35

Sequence: TLYNHHRQY
pKd (HLA-A*03:01; source organism: Burkholderia mallei): 7.34

Sequence: TVITPMLRH
pKd (HLA-A*26:01; [6]): 4.84

Sequence: VAGGLLTVCY
pKd (HLA-A*30:02; [10]): 6.97 | pKd (HLA-A*01:01 [1]; [10]): ≤ 4.43

Sequence: VILKDPRIA
pKd (HLA-A*02:03; [8]): 6.22 | pKd (HLA-A*02:02; [8]): 4.97 | pKd (HLA-A*02:06; [8]): 6.50

Sequence: VMPEKRNVV
pKd (HLA-A*02:03; [8]): 7.64 | pKd (HLA-A*02:02; [8]): 5.96 | pKd (HLA-A*02:06; [8]): 5.48

Sequence: VQSVLRDISI
pKd (HLA-A*02:03; [8]): 6.27 | pKd (HLA-A*02:02; [8]): 7.11 | pKd (HLA-A*02:06; [8]): 6.88

Sequence: VQTLISLNSM
pKd (HLA-A*02:03; [8]): 5.24 | pKd (HLA-A*02:02; [8]): 5.81 | pKd (HLA-A*02:06; [8]): 6.07

Sequence: VTLFIDRGSI
pKd (HLA-A*02:03; [8]): 5.65 | pKd (HLA-A*02:02; [8]): 5.42 | pKd (HLA-A*02:06; [8]): 5.52

Sequence: WLVHKQWFLD
pKd (HLA-A*32:01; [5]): 5.68

Sequence: WNSGYDWITD
pKd (HLA-A*32:01; [5]): 5.32

Sequence: WYMWLGARF
pKd (HLA-A*23:01; [10]): 7.69 | pKd (HLA-A*24:02; [10]): 7.79

Sequence: YIAGLKIEEI
pKd (HLA-A*02:03; [8]): 8.28 | pKd (HLA-A*02:02; [8]): 8.05 | pKd (HLA-A*02:06; [8]): 6.87

Sequence: YLNGGRRGY
pKd (HLA-A*69:01; [11]): ≤ 4.70 | pKd (HLA-A*02:01; [11]): ≤ 4.70

Sequence: YQGKTVWFVP
pKd (HLA-A*32:01; [7]): 5.07

Sequence: YSDPLALKE
pKd (HLA-A*01:01 [1]; [10]): 6.51

Sequence: YTKHSMLTNA
pKd (HLA-A*02:03; [8]): 6.85 | pKd (HLA-A*02:02; [8]): 5.41 | pKd (HLA-A*02:06; [8]): 5.13

Sequence: YTQLRFPKK
pKd (HLA-A*11:01; [12]): 8.37 | pKd (HLA-A*03:01; [12]): 6.31

pKd (HLA-A*26:01; source organism: Homo sapiens): 8.06
Sequence: YVIKVSARV

Sequence: YVIPDELIDV
pKd (HLA-A*02:03; [8]): 7.86 | pKd (HLA-A*02:02; [8]): 7.74 | pKd (HLA-A*02:06; [8]): 7.91

Sequence: YVVVHGYFT
pKd (HLA-A*02:03; [13]): 6.10 | pKd (HLA-A*02:02; [13]): 6.47 | pKd (HLA-A*02:06; [13]): 6.77
